Test results from publication PMC5589886.

Experiments:
[1] = molecular target: relaxin family peptide receptor-1 (human) (UniProt Q9HBX9)
[2] = molecular target: relaxin family peptide receptor-1 (human) (UniProt Q9HBX9); remark: listed apart in the source
[3] = molecular target: relaxin family peptide receptor-1 (human) (UniProt Q9HBX9); remark: listed apart in the source

UniProt Q9HBX9, sequence (Q9HBX9 whole entry): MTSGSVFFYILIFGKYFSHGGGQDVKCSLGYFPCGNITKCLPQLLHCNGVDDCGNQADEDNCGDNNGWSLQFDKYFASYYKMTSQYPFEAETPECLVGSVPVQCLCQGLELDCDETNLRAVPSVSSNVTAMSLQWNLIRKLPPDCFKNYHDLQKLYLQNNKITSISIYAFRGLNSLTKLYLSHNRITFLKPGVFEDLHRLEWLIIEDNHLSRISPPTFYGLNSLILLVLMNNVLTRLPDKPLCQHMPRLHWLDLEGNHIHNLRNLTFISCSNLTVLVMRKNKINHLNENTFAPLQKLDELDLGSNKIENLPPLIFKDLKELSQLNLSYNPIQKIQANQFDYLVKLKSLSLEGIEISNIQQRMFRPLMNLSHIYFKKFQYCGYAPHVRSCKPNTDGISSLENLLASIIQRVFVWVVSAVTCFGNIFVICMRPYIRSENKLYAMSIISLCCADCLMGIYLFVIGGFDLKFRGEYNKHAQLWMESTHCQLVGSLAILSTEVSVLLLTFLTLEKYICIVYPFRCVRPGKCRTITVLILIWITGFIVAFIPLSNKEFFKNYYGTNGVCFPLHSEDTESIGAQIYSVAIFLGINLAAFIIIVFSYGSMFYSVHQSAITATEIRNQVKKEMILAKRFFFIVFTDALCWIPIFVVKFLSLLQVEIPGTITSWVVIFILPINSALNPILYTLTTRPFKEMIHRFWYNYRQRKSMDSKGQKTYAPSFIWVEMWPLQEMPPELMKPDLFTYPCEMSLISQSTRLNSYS

## human relaxin-2 (ligand)
[1]
  cAMP generation (TR-FRET Lance cAMP immunoassay), mean pEC50 of H2-RLX in HEK293 cells transduced with RXFP1 BacMam at 0.5%, 5% and 10% v/v (pEC50 9.7, 10.2 and 11.3): 11.3 pEC50
[2]
  cAMP response of LX-2 cells (endogenous RXFP1) to 60 min H2-RLX after 40 h culture on plastic, mean pEC50 (n = 7): 9.1 pEC50
  cAMP response of primary hHSCs (endogenous RXFP1) to 60 min H2-RLX after 40 h culture, mean pEC50 across three patient samples: 9 pEC50
[3]
  cAMP response, representative H2-RLX dose response in LX-2 cells (endogenous RXFP1), pEC50: 8.8 pEC50
  cAMP response, representative H2-RLX dose response in hHSCs (endogenous RXFP1), pEC50: 9.3 pEC50
